Results on 36 variants are retold here after the Human Domainome abundance scans (Beltran et al. 2025).

B1: Glucocorticoid receptor, residues 419 to 494; numbered along this chain, P04150 (parent)
chain: KLCLVCSDEASGCHYGVLTCGSCKVFFKRAVEGQHNYLCAGRNDCIIDKIRRKNCPACRYRKCLQAGMNLEARKTK

± gives the uncertainty stated by the source.

In the data set the parent is B1. As to the kind of experiment: abundance fitness (aPCA) (normalised: wild type 0, dead -1); higher = more abundant; growth selection in yeast, the domain comes from the species named. The settings on record: Homo sapiens.
KLCCVCSDEASGCHYGVLTCGSCKVFFKRAVEGQHNYLCAGRNDCIIDKIRRKNCPACRYRKCLQAGMNLEARKTK [L4C]: the abundance fitness came to 0.016 ± 0.049.
The figure for KLCLVCSDEASGCHYGVLTCGSCKVFFKRAVEGQHNYLCAGRNDCIIDKIRRKNCPACRYRKCLQAGHNLEARKTK [M68H] is -0.551 ± 0.15.
In the case of KLCLVCSDEASGCHYGVLTCGSCKVFFKRAVEGQHNYLCAGRNDCIIDKIRRKNCPACRYRKCLQAGTNLEARKTK [M68T], the abundance fitness was -0.595 ± 0.12.
For KLCLVCSDEASGCHYGVLTCGSCKVFFKRAVEGQHNYLCAGRNDCIIDKIRRKNCPACRYRKCLQAGCNLEARKTK [M68C], the abundance fitness was -0.12 ± 0.06.
With KLCLVCSDEASGCHYGVLTCGSCKVFFKRAVEGQHNYLCAGRNDCIIDKIRRKNCPACRYRKCLQAGPNLEARKTK [M68P], the abundance fitness was -0.928 ± 0.14.
The figure for KLCLVCSDEASGCHYGVLTCGSCKVFFKRAVEGQHNYLCAGRNDCIILKIRRKNCPACRYRKCLQAGMNLEARKTK [D48L] is -0.437 ± 0.049.
The figure for KLTLVCSDEASGCHYGVLTCGSCKVFFKRAVEGQHNYLCAGRNDCIIDKIRRKNCPACRYRKCLQAGMNLEARKTK [C3T] is -0.818 ± 0.22.
For KLCLVCSDEASGCHYGVLTCGSCKVFFKRMVEGQHNYLCAGRNDCIIDKIRRKNCPACRYRKCLQAGMNLEARKTK [A30M], the abundance fitness was found to be 0.051 ± 0.053.
Consider KLCLVCSDEASGCHYGVLTCGSCKVFFKRAVEGQHNYLCAGRNDCIIDKIRRKNCPACVYRKCLQAGMNLEARKTK [R59V], for which the abundance fitness was -0.783 ± 0.082.
In the case of KLCLVCSDEASGCHYGVHTCGSCKVFFKRAVEGQHNYLCAGRNDCIIDKIRRKNCPACRYRKCLQAGMNLEARKTK [L18H], the abundance fitness is -0.012 ± 0.08.
As for KLCLVCSDEASGCHYGVRTCGSCKVFFKRAVEGQHNYLCAGRNDCIIDKIRRKNCPACRYRKCLQAGMNLEARKTK [L18R], the abundance fitness was -0.036 ± 0.036.
KLCLVCSDEASGCHYGVMTCGSCKVFFKRAVEGQHNYLCAGRNDCIIDKIRRKNCPACRYRKCLQAGMNLEARKTK [L18M]: the abundance fitness is -0.077 ± 0.056.
The figure for KLCLVCSDEASGCHYGVLTCGSCKVFFKRAVEGQHNYLCAGRNDCIIDKIRPKNCPACRYRKCLQAGMNLEARKTK [R52P] is -0.203 ± 0.064.
Take KLCLVCSDEASGCHYGVLTCGSCKVFFKRAVEGQHNYLCAGRNDCIIDKIRLKNCPACRYRKCLQAGMNLEARKTK [R52L]: the abundance fitness was -0.048 ± 0.036.
As to KLCLVCSDEASGCHYGVLTCGSCKVFFKRAVEGQHNYLCAGRNDCIIDKIREKNCPACRYRKCLQAGMNLEARKTK [R52E], the abundance fitness is -0.028 ± 0.047.
As for KLCLVCSDEASGCHYGVLTCGSCKVFYKRAVEGQHNYLCAGRNDCIIDKIRRKNCPACRYRKCLQAGMNLEARKTK [F27Y], the abundance fitness worked out at 0 ± 0.073.
For KLCLVCSDEASGCHYGVLTCGSCKVFFKRAEEGQHNYLCAGRNDCIIDKIRRKNCPACRYRKCLQAGMNLEARKTK [V31E], the abundance fitness is -0.052 ± 0.046.
For the variant KLCLVCSDEASGCHYGVLTCGSCKVFFKRAPEGQHNYLCAGRNDCIIDKIRRKNCPACRYRKCLQAGMNLEARKTK [V31P], the abundance fitness was -0.567 ± 0.1.
KLCLVCSDEASGCHYGVLTCGSCKVFFKRAVEGQHNYLCAGRNPCIIDKIRRKNCPACRYRKCLQAGMNLEARKTK [D44P]: the abundance fitness is -0.323 ± 0.057.
For the variant KLCLVCSDEASGCHYGVLTCGSCKVFFKRAVEGQHNYLCAGRNVCIIDKIRRKNCPACRYRKCLQAGMNLEARKTK [D44V], the abundance fitness is -0.053 ± 0.036.
In the case of KLCLVCSDEASGCHYGVLTCGSCKVFFKRAVEGQHNYLHAGRNDCIIDKIRRKNCPACRYRKCLQAGMNLEARKTK [C39H], the abundance fitness was -0.575 ± 0.27.
The figure for KLCLVCSDEASGCHYGVLTCGSCKVFFKRAVEGQHNYLFAGRNDCIIDKIRRKNCPACRYRKCLQAGMNLEARKTK [C39F] is -0.603 ± 0.16; for KLCLVCSDEASGCHYGVLTCGSCKVFFKRAVEEQHNYLCAGRNDCIIDKIRRKNCPACRYRKCLQAGMNLEARKTK [G33E] it is -0.039 ± 0.052.
Consider KLCLVCSDEASGCHYGVLTCGSCKVFFKRAVEGQHNYLCAGRNDCIIDKIRRKNCPACRYRKCLQAGMNLAARKTK [E71A], for which the abundance fitness is -0.135 ± 0.041.
For the variant KLCLVCSDEASGCHYGVLTCGSCKVCFKRAVEGQHNYLCAGRNDCIIDKIRRKNCPACRYRKCLQAGMNLEARKTK [F26C], the abundance fitness is -0.636 ± 0.17.
With KLCLVCSDEFSGCHYGVLTCGSCKVFFKRAVEGQHNYLCAGRNDCIIDKIRRKNCPACRYRKCLQAGMNLEARKTK [A10F], the abundance fitness is -0.362 ± 0.075.
On to KLCLVCSDEISGCHYGVLTCGSCKVFFKRAVEGQHNYLCAGRNDCIIDKIRRKNCPACRYRKCLQAGMNLEARKTK [A10I], for which the abundance fitness was -0.15 ± 0.075.
The figure for KLCLVCSDEASGCHYGVLTCGSCKVFFKRAVQGQHNYLCAGRNDCIIDKIRRKNCPACRYRKCLQAGMNLEARKTK [E32Q] is -0.08 ± 0.046.
Turning to KLCLVCSDEASGCHYGVLTCGSCKVFFKRAVPGQHNYLCAGRNDCIIDKIRRKNCPACRYRKCLQAGMNLEARKTK [E32P], the abundance fitness was -0.388 ± 0.073.
As for KLCLVCSDEASGCHYGVLTCGSCKVFFKRAVEGQHNYLCAGNNDCIIDKIRRKNCPACRYRKCLQAGMNLEARKTK [R42N], the abundance fitness turned out to be 0.093 ± 0.071.
Regarding KLCLVCSDEASGCHYGVLTVGSCKVFFKRAVEGQHNYLCAGRNDCIIDKIRRKNCPACRYRKCLQAGMNLEARKTK [C20V], the abundance fitness was -1.11 ± 0.2.
In the case of KLCLVCSDEASGCHYGVLTWGSCKVFFKRAVEGQHNYLCAGRNDCIIDKIRRKNCPACRYRKCLQAGMNLEARKTK [C20W], the abundance fitness was -0.78 ± 0.11.
Turning to KLCLVCSDEASYCHYGVLTCGSCKVFFKRAVEGQHNYLCAGRNDCIIDKIRRKNCPACRYRKCLQAGMNLEARKTK [G12Y], the abundance fitness was -0.206 ± 0.065.
On to KLCLVCSDEASPCHYGVLTCGSCKVFFKRAVEGQHNYLCAGRNDCIIDKIRRKNCPACRYRKCLQAGMNLEARKTK [G12P], for which the abundance fitness is -0.318 ± 0.07.
KLCLVCSDEASGCHYGVLTCGSCKVFFKRAVEGQHNYLCAGRNDCIIDKIRRKNCPACRYRKCLQAGMNLEARLTK [K74L]: the abundance fitness amounted to 0.077 ± 0.038.
The figure for KLCLVCSDEASGCHYGVLTCGSCKVFFKRAVEGQHNYLCAGRNDCIIDKIRRKNCPACRYRKCLQAGMNLEARWTK [K74W] is -0.017 ± 0.05.
